In patent US20170315124A1 (ATTOGEN BIOMEDICAL SUZHOU, published 2017):

Legend:
[1] = target: T1, GST-HPV16 L2 fusion protein (HPV16, UniProt P03107 1-473); assay: indirect ELISA on coated antigen
T1 construct: Specificity control antigen in the ELISA; also called recombinant protein HPV16 L2; not shown: glutathione S-transferase (GST) fusion partner
T1 sequence: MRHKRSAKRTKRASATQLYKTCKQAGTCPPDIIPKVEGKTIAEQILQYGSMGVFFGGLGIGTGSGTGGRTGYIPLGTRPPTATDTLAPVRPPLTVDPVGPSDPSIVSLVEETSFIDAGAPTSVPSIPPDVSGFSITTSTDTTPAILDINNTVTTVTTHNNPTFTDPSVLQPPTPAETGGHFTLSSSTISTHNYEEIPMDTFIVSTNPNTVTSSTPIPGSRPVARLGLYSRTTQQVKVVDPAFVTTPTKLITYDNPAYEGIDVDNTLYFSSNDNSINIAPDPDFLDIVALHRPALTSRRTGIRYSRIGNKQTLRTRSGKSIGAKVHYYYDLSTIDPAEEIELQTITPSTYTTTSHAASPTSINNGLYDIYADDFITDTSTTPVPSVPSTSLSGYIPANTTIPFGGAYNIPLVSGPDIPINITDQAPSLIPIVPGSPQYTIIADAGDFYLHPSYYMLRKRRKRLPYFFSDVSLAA

polypeptide HPV16 E7-1 = target: T2, polypeptide HPV16 E7-1 (HPV16); assay: indirect ELISA on coated peptide
T2 peptide: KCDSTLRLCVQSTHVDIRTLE

[2] = target: T3, His-HPV16 E7 recombinant fusion protein (HPV16, UniProt P03129 2-98); assay: indirect ELISA, method of Beatty et al.; reference 1H11
T3 construct: also called recombinant protein HPV16 E7; not shown: His tag
T3 sequence: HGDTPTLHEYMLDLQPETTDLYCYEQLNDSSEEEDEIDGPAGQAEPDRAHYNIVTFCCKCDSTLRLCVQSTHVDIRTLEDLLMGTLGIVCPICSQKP

[3] = target: T3, His-HPV16 E7 recombinant fusion protein; assay: indirect ELISA, method of Beatty et al.; His-HPV16 E7 coated at 4 concentrations, 7B6 in 8 two-fold dilutions from 2 µg/ml; mean of 6 K values
[4] = target: T3, His-HPV16 E7 recombinant fusion protein; assay: indirect ELISA, method of Beatty et al.; reference 2G7
Method: There were total 8 gradients and then ELISA test was conducted. The obtained values were plot into Kaff=(n−1)/2(n [Ab′]−[Ab]) to obtain the affinity constant. […] It means using the antibody concentration corresponding to half of the highest OD value (50% OD) on the curve through graphing method. In this equation, n=Ag/Ag′. Then each two of them were compared, when n=4, three K values could be obtained, when n=16, two K values could be obtained and when n=64, one K values could be obtained then calculate the average of these six values as the result.

B1: anti-HPV16 E7 monoclonal antibody 7B6 (antibody, V domains shown)
VH: VKLQESGPELVKPGASMKISCKASGYSFTGSTMNWVKQSHGKNLEWIGLIDPYNGVIRYNQKFKGRATLTIDKSSSTAYMELLSLTSDDSAVYYCARKLRYWGQGTTLTVSS
VL: ATQSPSSLNVSPGEKVTMSCKSSQSLLNSGNQRNYLAWYQQKPGQPPKLLIYGASTRESGVPDRFTGSGSGTDFTLTISSVQAEDLAVYYCQNDLSYPLTFGAGTKLELK
notes: also called mAb anti-HPV16E7 7B6
Which results are given for B1?
binding result [1]: no binding (tested: 7B6 1 µg/ml; antigen coated at 2 µg/ml); binding result (polypeptide HPV16 E7-1): no binding; fold of binding affinity over 1H11 [2]: 5 fold; Kd [3]: 640 pM; fold of binding affinity over 2G7 [4]: 2 fold
